Source: KR20140018819A (dated 2014)

T1: TM4SF5 (transmembrane 4 L six family member 5) 단백질 (human, UniProt O14894 1-197)
T1 sequence (looked up): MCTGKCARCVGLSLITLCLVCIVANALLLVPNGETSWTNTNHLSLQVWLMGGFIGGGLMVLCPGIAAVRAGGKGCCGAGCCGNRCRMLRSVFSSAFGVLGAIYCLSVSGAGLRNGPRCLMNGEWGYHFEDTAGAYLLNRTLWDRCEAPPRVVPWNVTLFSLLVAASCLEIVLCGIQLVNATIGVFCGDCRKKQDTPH


Target: T1, TM4SF5 (transmembrane 4 L six family …)
Assay: cell-based or functional assay

간암세포주의 침윤 억제 (Transwell assay, Tp 세포, 항체 20㎍/㎖, 48시간) | Binder
83% | 항-TM4SF5 항체 #1 (scFv-Fc) (Fc fusion) VH: EVQLQQFGAELVRPGASVTLSCKASGYTFTDYEMHWVKQTPVHGLEWIGAIDPETGGTAYNQKFKGKAILTADKSSSTAYMELRSLTSEDSAVYFCARLTLFYGNYDWPFDVWGTGTSVTVSS VL: DIVMTQSQKFMSTSVGDRVSITCKASQNVRTAVAWYQQKPGQSPKLLIYWASTRHTGVPDRFTGSGSGTDFTLTISNVQSEDLADYFCQQYSSYPFTFGSGTKLEIK
56% | 항-TM4SF5 항체 #27 (scFv-Fc) (Fc fusion) VH: QVQLQQFGAELVRPGASVTLSCKASGYTFTDYEMHWVKQTPVHGLEWIGAIDPETGGTAYNQKFKGKAILTADKSSSTAYMELRSLTSEDSAVYYCTRPYLGYWGQGTTVTVSS VL: DAVVTQTPLSLPVSLGDQASISCRSSQSLVHSNGNTYLHWYLQKPGQSPKLLIYKVSNRFSGVPDRFSGSGSGTDFTLKISRVEAEDLGVYYCFQGSHIPLTFGAGTKLELK
49% | 항-TM4SF5 항체 #79 (scFv-Fc) (Fc fusion) VH: GVQLQQSGAELVRPGASVKLSCKASGYTFTDYEMHWVKQTPVHGLEWIGAIDPETGGTAYNQKFKGKAILTADKSSSTAYMELRSLTSEDSAVYYCTVYGLAYWGQGTLVTVSA VL: DVVMTQTPLSLPVSLGDQASISCRSSQSLVHSNGNTYLHWYLQKPGQSPKLLIYKVSNRFSGVPDRFSGSGSGTDFTLKISRVEAEDLGVYFCSQNTHVPYTFGGGTKLELK
